Experiments:
[1] = target: mu opiate receptor; test: cell-based or functional assay
[2] = target: p141-ubiquitin fusion protein (human) (UniProt P0CG47); test: cell-based or functional assay
Sequence of p141-ubiquitin fusion protein (human) (P0CG47 other isoform, or with tags, fused parts or gaps): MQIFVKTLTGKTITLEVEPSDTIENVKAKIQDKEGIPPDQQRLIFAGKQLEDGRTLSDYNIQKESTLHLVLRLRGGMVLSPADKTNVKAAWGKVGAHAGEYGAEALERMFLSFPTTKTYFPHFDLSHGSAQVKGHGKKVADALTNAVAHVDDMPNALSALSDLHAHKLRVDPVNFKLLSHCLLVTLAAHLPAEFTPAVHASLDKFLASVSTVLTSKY

| Substance | % Kill in the CFU-MIX cycling assay, Human Alpha (100 ng/ml) + CTOP 10^-7 M (0 without CTOP; control 42; CTOP alone 36) [1] [%] | digestion of the ubiquitin fusion protein in vivo (co-expression in bacteria) [2] [%] |
| --- | --- | --- |
| Purified human hemoglobin alpha chain (from UniProt P69905 2-142) | 20 | – |
| UBP1 ubiquinase (from UniProt P25037 1-809) (enzyme) | – | 70 |
